Assay results from publication PMC6446281.

Key:
[1] = target: HA-SUMO3 (UniProt P55854); test: co-IP; 293T cells cotransfected with GFP-INwt/mut and HA-SUMO2 or HA-SUMO3, 40 h; lysis buffer 20 mM Tris-HCl pH 7.5, 100 mM NaCl, 0.5% NP-40, 0.5 mM EDTA; immunoprecipitated with anti-HA, blotted with anti-GFP; densitometry with GFP-INwt set as 100%
[2] = target: HA-SUMO3 (UniProt P55854); test: co-IP (IP anti-HA, WB anti-GFP) with densitometric analysis; settings: 293 T cells cotransfected with GFP-INwt/mut and HA-SUMO3; parent: est. 1.0; read off a plot
[3] = target: GFP-IN 3VI mutant (V72A/I73A, I200A/V201A, V259A/V260A) (HIV-1); test: co-IP
[4] = target: M1 + M2 and M1 + M3 mutants; test: co-IP; 293T cells cotransfected with GFP-INwt/mut and T7-LEDGF/p75, T7-Ku70 or HA-Ubc9; immunoprecipitated with rabbit anti-GFP, blotted with anti-T7 or anti-HA
[5] = target: M2 and M3; test: as above

T7-Ku70, sequence (P12956 whole entry): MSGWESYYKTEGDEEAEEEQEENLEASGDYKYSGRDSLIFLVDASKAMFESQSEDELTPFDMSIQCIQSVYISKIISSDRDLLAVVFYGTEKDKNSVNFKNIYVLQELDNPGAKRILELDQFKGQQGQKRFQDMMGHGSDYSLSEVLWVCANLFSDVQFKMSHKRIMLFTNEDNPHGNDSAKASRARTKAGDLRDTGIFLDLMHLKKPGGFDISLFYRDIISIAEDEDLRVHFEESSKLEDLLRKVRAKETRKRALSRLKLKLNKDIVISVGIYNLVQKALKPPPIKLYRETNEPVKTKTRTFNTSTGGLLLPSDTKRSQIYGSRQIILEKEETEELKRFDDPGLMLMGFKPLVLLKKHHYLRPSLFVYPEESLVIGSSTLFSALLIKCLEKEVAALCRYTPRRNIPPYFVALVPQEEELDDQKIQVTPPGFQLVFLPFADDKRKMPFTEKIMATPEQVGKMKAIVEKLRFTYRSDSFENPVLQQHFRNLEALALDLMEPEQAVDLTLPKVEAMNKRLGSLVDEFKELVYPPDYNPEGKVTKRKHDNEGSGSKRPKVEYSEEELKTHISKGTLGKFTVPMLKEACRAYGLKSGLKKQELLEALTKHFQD

GFP-IN mutant M2 (I200A/V201A) (enzyme) showed a percent reduction in binding against GFP-INwt [1] of 80%.
In the case of GFP-IN mutant M3 (V259A/V260A) (enzyme), the percent reduction in binding against GFP-INwt [1] was 67%.
“GFP-IN wild type (HIV-1 integrase, codon-optimized, fused to AcGFP) K46R; K136R; K244R” was tested, and the ratio to parent [2] was 1.1.
Work on “GFP-IN wild type (HIV-1 integrase, codon-optimized, fused to AcGFP) V72A; I73A” yielded a ratio to parent [2] of 1.2.
“GFP-IN wild type (HIV-1 integrase, codon-optimized, fused to AcGFP) V72A; I73A; I200A; V201A; V259A; V260A” showed a ratio to parent [2] of 0.01.
“T7-Ku70 (from UniProt P12956 1-609) (natural protein)” showed a fold change in binding against INwt [3] of 2 fold.
“T7-LEDGF/p75 (lens-epithelium-derived growth factor) (from UniProt O75475 1-530) (natural protein)” was tested, and the percent of the binding of INwt [4] was 10 to 20%, the percent of the binding of INwt [5] was 40 to 60% and the percent of the binding of INwt [3] was < 10%.
